Data from patent US20260055206A1 (GENSUN BIOPHARMA, published 2026).

T1: human DLL3 (over-expressed on CHO-K1 cells) (human, UniProt Q9NYJ7 27-618)
T1 construct: whole, on cells; also called huDLL3; Delta-like 3
T1 sequence (looked up): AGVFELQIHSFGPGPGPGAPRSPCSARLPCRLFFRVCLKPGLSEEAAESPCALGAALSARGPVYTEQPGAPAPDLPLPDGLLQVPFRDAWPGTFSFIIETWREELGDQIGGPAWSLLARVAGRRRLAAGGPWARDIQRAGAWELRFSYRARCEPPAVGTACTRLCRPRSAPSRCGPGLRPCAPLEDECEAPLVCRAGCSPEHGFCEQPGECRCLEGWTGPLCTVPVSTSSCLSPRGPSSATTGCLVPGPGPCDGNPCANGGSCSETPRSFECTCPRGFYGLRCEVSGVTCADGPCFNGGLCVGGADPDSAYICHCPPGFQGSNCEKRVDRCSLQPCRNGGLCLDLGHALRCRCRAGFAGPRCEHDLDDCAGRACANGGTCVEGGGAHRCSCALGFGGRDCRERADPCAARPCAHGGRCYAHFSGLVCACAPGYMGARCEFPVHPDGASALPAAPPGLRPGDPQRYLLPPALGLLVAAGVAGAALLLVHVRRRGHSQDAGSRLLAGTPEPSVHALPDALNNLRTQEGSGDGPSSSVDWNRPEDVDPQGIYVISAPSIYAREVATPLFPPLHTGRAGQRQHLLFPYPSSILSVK


Target: T1, human DLL3 (over-expressed on CHO-K1 …)
Test: flow cytometry (iQue) on CHO-K1 cells over-expressing human DLL3, PE anti-human IgG Fc secondary
Experimental: To evaluate the ability of anti-DLL3 antibodies to bind, human serial dilutions of the anti-DLL3 antibodies were added to CHO-K1 cells (20,000 cells/well) over-expressing human or cyno DLL3. The mixtures were incubated at 4° C. for 20 minutes, washed 3 times, and stained with the secondary antibody, PE labeled F(ab′)2-Goat anti-human IgG Fc (Thermo H10104) at 4° C. for 20 minutes. Cells were washed and resuspended in 7-Amino-Actinomycin D (7-AAD) solution and fixed in 10% neutral buffered formalin solution for 15 minutes before analysis with the iQue-Intellicyt […]™ iQUE™ system. FIG. 3A is a graph of the concentration (nM) versus the mean fluorescence intensity.

| binding result | Binder |
| --- | --- |
| binds | DLL3.3 (humanized anti-DLL3 antibody) (antibody, V domains shown, it was detected with anti-human IgG Fc) VH: QVQLVQSGAEVKKPGASVKVSCKASGYTFTDYFMNWVRQAPGQGLEWMGVINPYNDITIYNQKFQGRVTMTVDRSTSTVYMELSSLRSEDTAVYYCAREGVLYDGYYEGAYWGQGTLVTVSS VL: DIQLTQSPSFLSASVGDRVTITCKASQNVGIAVAWYQQKPGKAPKLLIYAASNRYTGVPSRFSGSGSGTEFTLTISSLQPEDFATYYCQQYSTYPYTFGQGTKLEIK |
| binds | DLL3.1 (humanized anti-DLL3 antibody) (antibody, V domains shown, it was detected with anti-human IgG Fc) VH: QVQLVQSGAEVKKPGASVKVSCKASDYTFSNYYIEWVRQAPGQGLEWMGEILPGNGNTVYNEKFKDRVTMTVDTSTSTAYMELRSLRSDDTAVYYCARWGDYALFANWGQGTLVTVSS VL: DIQMTQSPSTLSASVGDRVTITCKASQNVGTNVAWYQQKPGKAPKALIYSASYRYSGVPSRFSGSGSGTEFTLTISSLQPDDFATYYCQQYNSYPFTFGQGTKLEIK |
| binds | DLL3.4 (humanized anti-DLL3 antibody) (antibody, V domains shown, it was detected with anti-human IgG Fc) VH: QVQLVQSGAEVKKPGASVKVSCKATDYIFSNYYIEWVRQAPGQGLEWMGEILPGTGNTVYNEKFKDRVTMTVDTSTSTVYMELSSLRSEDTAVYYCARWGDYALFANWGQGTLVTVSS VL: DIQMTQSPSFLSASVGDRVTITCKASQNVGTNVAWYQQKPGKAPKPLIYSTSYRYSGVPSRFSGSGSGTEFTLTISSLQPEDFATYYCQQYNNYPLTFGGGTKVEIK |
